Fewer inactive variants are shown than the library holds.
Key:
biotinyl-Trp-oxazolone = assay: self-aminoacylation, catalytic enhancement (BWO) (fold over background); higher = more active; k-Seq, kA / k0A0; sequences stand for … in GGGAAUGGAUCCACAUCUACGAAUUC…UUCACUGCAGACUUGACGAAGCUG
Method in brief: (§1)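 Working in 50 μL HEPES/NaCl/KCl/MgCl2/CaCl2 buffer with 5% acetonitrile at pH 6.9–7.0, mutagenized RNA pools (0.43 μM; 21-nt variable region) were reacted with 2–1250 μM of each biotinyl-aminoacyl-oxazolone for 90 minutes at room temperature. Streptavidin capture followed, with quantification by triplicate qPCR and Illumina sequencing. Catalytic enhancement is reported as median kA over the uncatalyzed rate, the low-activity peak of a bimodal Gaussian fit to the data.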

biotinyl-Leu-oxazolone = assay: self-aminoacylation, catalytic enhancement (BLO) (fold over background); higher = more active; k-Seq, kA / k0A0; sequences stand for … in GGGAAUGGAUCCACAUCUACGAAUUC…UUCACUGCAGACUUGACGAAGCUG
Method in brief: as §1

biotinyl-Phe-oxazolone = assay: self-aminoacylation, catalytic enhancement (BFO) (fold over background); higher = more active; k-Seq, kA / k0A0; sequences stand for … in GGGAAUGGAUCCACAUCUACGAAUUC…UUCACUGCAGACUUGACGAAGCUG
Method in brief: as §1

biotinyl-Val-oxazolone = assay: self-aminoacylation, catalytic enhancement (BVO) (fold over background); higher = more active; k-Seq, kA / k0A0; sequences stand for … in GGGAAUGGAUCCACAUCUACGAAUUC…UUCACUGCAGACUUGACGAAGCUG
Method in brief: as §1

biotinyl-Met-oxazolone = assay: self-aminoacylation, catalytic enhancement (BMO) (fold over background); higher = more active; k-Seq, kA / k0A0; sequences stand for … in GGGAAUGGAUCCACAUCUACGAAUUC…UUCACUGCAGACUUGACGAAGCUG
Method in brief: as §1

biotinyl-Ile-oxazolone = assay: self-aminoacylation, catalytic enhancement (BIO) (fold over background); higher = more active; k-Seq, kA / k0A0; sequences stand for … in GGGAAUGGAUCCACAUCUACGAAUUC…UUCACUGCAGACUUGACGAAGCUG
Method in brief: as §1

| Sequence | self-aminoacylation (biotinyl-Trp-oxazolone) | self-aminoacylation (biotinyl-Leu-oxazolone) | self-aminoacylation (biotinyl-Phe-oxazolone) | self-aminoacylation (biotinyl-Val-oxazolone) | self-aminoacylation (biotinyl-Met-oxazolone) | self-aminoacylation (biotinyl-Ile-oxazolone) |
| --- | --- | --- | --- | --- | --- | --- |
| AUUCACCCAGGUCAUCGGGUG [Fam2.2 aminoacylation ribozyme variant] | 4.53 | 5.86 | 34.2 | 3.53 | 4.83 | 3.26 |
| AUUCACCCAGGUCAUCGUGUG [Fam2.2 aminoacylation ribozyme variant] | 1.1 | 1.29 | 3.46 | 1.04 | 1.04 | 0.798 |
| AUUCACCCAGGUUAUCGGGUG [Fam2.2 aminoacylation ribozyme variant] | 4.83 | 4.62 | 35.3 | 3.33 | 4.79 | 2.77 |
| AUUCACCCUGGUCAUCGGGUG [Fam2.2 aminoacylation ribozyme variant] | 10.6 | 11.5 | 71 | 5.5 | 10.6 | 5.16 |
| AUUCACCGACGUCAUCGGGUG [Fam2.2 aminoacylation ribozyme variant] | 9.46 | 12.9 | 55.1 | 6.24 | 10.2 | 5.71 |
| AUUCACCGAGAUCAUCGGGUG [Fam2.2 aminoacylation ribozyme variant] | 7.09 | 8.53 | 49.8 | 4.27 | 6.77 | 3.88 |
| AUUCACCGAGGGCAUCGGGUG [Fam2.2 aminoacylation ribozyme variant] | 7.83 | 8.06 | 30.9 | 5.15 | 5.18 | 4.62 |
| AUUCACCGAUGUCAUCGGGUG [Fam2.2 aminoacylation ribozyme variant] | 7.35 | 10.8 | 62.7 | 4.63 | 8.67 | 5.59 |
| AUUCACCGGGGUCAUCGGGUG [Fam2.2 aminoacylation ribozyme variant] | 9.14 | 10.7 | 80.5 | 7.4 | 8.15 | 6.47 |
| AUUCACCGUGGUCAUCGGGUG [Fam2.2 aminoacylation ribozyme variant] | 8.84 | 9.19 | 59.5 | 6.1 | 9.04 | 5.23 |
| AUUCACCUAAGUCAUCGGUUG [Fam2.2 aminoacylation ribozyme variant] | 0.969 | 1.23 | 0.716 | 1.24 | 1.14 | 1.06 |
| AUUCACCUAAGUCGUCGGGUG [Fam2.2 aminoacylation ribozyme variant] | 2.02 | 2.55 | 10.1 | 1.87 | 2.18 | 1.88 |
| AUUCACCUACCUCAUCGGGUG [Fam2.2 aminoacylation ribozyme variant] | 2.79 | 4.3 | 22.3 | 2.33 | 2.69 | 2.21 |
| AUUCACCUACGACAUCGGGUG [Fam2.2 aminoacylation ribozyme variant] | 3.95 | 5.12 | 24 | 2.28 | 3.87 | 2.48 |
| AUUCACCUACGGCAUCGGGUG [Fam2.2 aminoacylation ribozyme variant] | 3.22 | 3.86 | 22.2 | 2.7 | 2.91 | 2.29 |
| AUUCACCUACGUCAGCGGGUG [Fam2.2 aminoacylation ribozyme variant] | 4.14 | 6.17 | 31.4 | 2.71 | 4.72 | 2.95 |
| AUUCACCUACGUCAUCCGGUG [Fam2.2 aminoacylation ribozyme variant] | 7.01 | 8.48 | 46.7 | 3.84 | 5.94 | 4.29 |
| AUUCACCUACGUCAUUGGGUG [Fam2.2 aminoacylation ribozyme variant] | 1.51 | 2.47 | 10.9 | 1.51 | 1.97 | 1.5 |
| AUUCACCUAGAGCAUCGGGUG [Fam2.2 aminoacylation ribozyme variant] | 1.64 | 2.43 | 12.4 | 2.06 | 2.34 | 1.76 |
| AUUCACCUAGAUCAACGGGUG [Fam2.2 aminoacylation ribozyme variant] | 4.38 | 5.41 | 25.3 | 2.49 | 4.52 | 2.73 |
| AUUCACCUAGAUCAUCCGGUG [Fam2.2 aminoacylation ribozyme variant] | 2.83 | 3.97 | 17.8 | 3.32 | 3.41 | 3.4 |
| AUUCACCUAGCACAUCGGGUG [Fam2.2 aminoacylation ribozyme variant] | 2.03 | 3.31 | 11.3 | 2.12 | 2.38 | 2.09 |

| Sequence | self-aminoacylation (biotinyl-Trp-oxazolone) | self-aminoacylation (biotinyl-Leu-oxazolone) | self-aminoacylation (biotinyl-Phe-oxazolone) | self-aminoacylation (biotinyl-Val-oxazolone) | self-aminoacylation (biotinyl-Met-oxazolone) | self-aminoacylation (biotinyl-Ile-oxazolone) |
| --- | --- | --- | --- | --- | --- | --- |
| AUUCACCUAGCUCACCGGGUG [Fam2.2 aminoacylation ribozyme variant] | 2.11 | 2.64 | 16.7 | 2.52 | 3.66 | 2.15 |
| AUUCACCUAGCUCAUCGGGCG [Fam2.2 aminoacylation ribozyme variant] | 1.8 | 2.33 | 11.7 | 2.57 | 2.3 | 2.26 |
| AUUCACCUAGCUCAUGGGGUG [Fam2.2 aminoacylation ribozyme variant] | 4.56 | 5.64 | 32.8 | 2.8 | 5.15 | 2.97 |
| AUUCACCUAGGACAUAGGGUG [Fam2.2 aminoacylation ribozyme variant] | 3.23 | 4.7 | 18.6 | 2.01 | 3.54 | 2.06 |
| AUUCACCUAGGACAUCGAGUG [Fam2.2 aminoacylation ribozyme variant] | 1.89 | 1.81 | 2.04 | 1.12 | 1.52 | 1.02 |
| AUUCACCUAGGACAUCGGGAG [Fam2.2 aminoacylation ribozyme variant] | 0.92 | 1.03 | 0.29 | 0.991 | 1.08 | 1.02 |
| AUUCACCUAGGACAUCGGGUC [Fam2.2 aminoacylation ribozyme variant] | 0.858 | 1.42 | 0.549 | 1.25 | 0.87 | 1.22 |
| AUUCACCUAGGACUUCGGGUG [Fam2.2 aminoacylation ribozyme variant] | 3.48 | 3.6 | 19.1 | 2.43 | 2.75 | 2.5 |
| AUUCACCUAGGAUAUCGGGUG [Fam2.2 aminoacylation ribozyme variant] | 5.47 | 7.35 | 44.1 | 3.64 | 6.65 | 3.31 |
| AUUCACCUAGGCAAUCGGGUG [Fam2.2 aminoacylation ribozyme variant] | 3.92 | 4.75 | 35.4 | 2.98 | 3.95 | 2.52 |
| AUUCACCUAGGCCAUCGGGUU [Fam2.2 aminoacylation ribozyme variant] | 0.76 | 1.03 | 5.49 | 1.31 | 1.52 | 1.34 |
| AUUCACCUAGGCCGUCGGGUG [Fam2.2 aminoacylation ribozyme variant] | 2.11 | 2.74 | 17.1 | 2.3 | 1.94 | 1.87 |
| AUUCACCUAGGGCAACGGGUG [Fam2.2 aminoacylation ribozyme variant] | 2.92 | 4.08 | 22.8 | 2.5 | 2.81 | 2.59 |
| AUUCACCUAGGGCAUCAGGUG [Fam2.2 aminoacylation ribozyme variant] | 1.55 | 1.7 | 1.46 | 1.46 | 1.6 | 1.35 |
| AUUCACCUAGGGCAUCGCGUG [Fam2.2 aminoacylation ribozyme variant] | 2.95 | 2.92 | 26.7 | 3.89 | 3.5 | 3.12 |
| AUUCACCUAGGGCAUCGGGUG [Fam2.2 aminoacylation ribozyme variant] | 3.4 | 4.05 | 20.3 | 3 | 3.55 | 2.78 |
| AUUCACCUAGGGCAUCUGGUG [Fam2.2 aminoacylation ribozyme variant] | 2.64 | 3.23 | 13 | 2.33 | 2.63 | 2.11 |
| AUUCACCUAGGGCAUUGGGUG [Fam2.2 aminoacylation ribozyme variant] | 6.12 | 8.05 | 42.8 | 3.49 | 6.54 | 3.74 |
| AUUCACCUAGGUAAGCGGGUG [Fam2.2 aminoacylation ribozyme variant] | 2.31 | 2.75 | 14.3 | 1.48 | 2.73 | 1.9 |
| AUUCACCUAGGUAAUCAGGUG [Fam2.2 aminoacylation ribozyme variant] | 0.933 | 1.31 | 1.21 | 0.989 | 1.25 | 0.967 |
| AUUCACCUAGGUAAUCCGGUG [Fam2.2 aminoacylation ribozyme variant] | 4.8 | 4.57 | 30.4 | 2.39 | 3.77 | 2.33 |

Reference: the supplement of paper PMC9233669
